Data: PMC11139983

Columns and labels:
VUN701 = test: BRET-based β-arrestin2 recruitment competition assay (functional KB); conditions: 90% effective concentration of CXCL12 determined for each ACKR3 variant; parent: est. 0.0; read off a plot
[1] = target: atypical chemokine receptor 3 (ACKR3) (human)
[2] = target: atypical chemokine receptor 3 (ACKR3) (human); remark: listed apart in the source

atypical chemokine receptor 3 (ACKR3) (human), sequence (chain, as listed by the source): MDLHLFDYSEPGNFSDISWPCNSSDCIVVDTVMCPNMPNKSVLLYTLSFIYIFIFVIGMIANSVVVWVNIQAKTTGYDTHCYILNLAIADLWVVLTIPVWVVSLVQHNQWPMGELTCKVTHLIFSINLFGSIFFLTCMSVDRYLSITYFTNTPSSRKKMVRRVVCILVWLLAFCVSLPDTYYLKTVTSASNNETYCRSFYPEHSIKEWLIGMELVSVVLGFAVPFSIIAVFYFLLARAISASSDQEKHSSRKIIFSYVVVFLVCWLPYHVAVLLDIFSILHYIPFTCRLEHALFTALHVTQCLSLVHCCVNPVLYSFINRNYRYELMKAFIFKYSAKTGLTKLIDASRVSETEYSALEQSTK

## atypical chemokine receptor 3 (ACKR3) F285A
VUN701
  log10 ratio: -2.4

## atypical chemokine receptor 3 (ACKR3) E290A
VUN701
  log10 ratio: -1.8

## atypical chemokine receptor 3 (ACKR3) D275A
VUN701
  log10 ratio: -1.8

B1: VUN701 (VHH)
VHH: QVQLVESGGGLVQAGGSLRLSCAASGSTFSLHLMGWYRQAPGKQREVVATSGSGGDTNYADSVKGRFTISRDNDKNTVDLQMNNLKPEDTADYYCRAQQKIGRDTFRDYWGQGTQVTVSS
[1]
  IC50 of inhibition of CXCL11-induced β-arrestin2 recruitment to ACKR3 (BRET, HEK293T); blocks m4 with m2: 105 nM
  IC50 of inhibition of CXCL12-induced β-arrestin2 recruitment to ACKR3 (BRET, HEK293T); blocks m3 with m2: 157 nM
  KB (Cheng-Prusoff) from inhibition of CXCL11-induced β-arrestin2 recruitment to ACKR3 (BRET); blocks m4 with m2: 23.3 nM
  KB (Cheng-Prusoff) from inhibition of CXCL12-induced β-arrestin2 recruitment to ACKR3 (BRET); blocks m3 with m2: 9.8 nM
  pKB (Cheng-Prusoff) from inhibition of CXCL11-induced β-arrestin2 recruitment to ACKR3 (BRET); blocks m4 with m2: 8.64
[2]
  KB from Schild analysis of CXCL12-induced β-arrestin2 recruitment to ACKR3 (BRET); blocks m3 with m2: 18.2 nM
